Test results: the DeepSol protein solubility set

Test: soluble on expression in E. coli; label from the status in PepcDB or PDB records

Soluble on expression in E. coli, not soluble:
MGSDKIHHHHHHMDYTPRLQPARLIKRYKRFLADVVTPEGETLTLHCANTGAMTGCATPGDTVWYSTSDNPKRKYPQSWELTETQQNHWICVNTLRANTLLYEALLENRIEELAGYSDIKTEVKYGTENSRIDLLLQAPDRIDCYIEVKSVTLLQHECGYFPDAVTLRGQKHLRELQQMVSNGKRAVLFFAVLHSGIQQVSPARHIDSRYAELFIEAQQAGVEILCYGSTLCPDGIKLTNKLPLLG
MGSDKIHHHHHHMEAAAQFFVESPDVVYGPEAIEAQYEYRTTRVSREGGVLKVHPTSTRFTFRTARQVPRLGVMLVGWGGNNGSTLTAAVLANRLRLSWPTRSGRKEANYYGSLTQAGTVSLGLDAEGQEVFVPFSAVLPMVAPNDLVFDGWDISSLNLAEAMRRAKVLDWGLQEQLWPHMEALRPRPSVYIPEFIAANQSARADNLIPGSRAQQLEQIRRDIRDFRSSAGLDKVIVLWTANTERFCEVIPGLNDTAENLLRTIELGLEVSPSTLFAVASILEGCAFLNGSPQNTLVPGALELAWQHRVFVGGDDFKSGQTKVKSVLVDFLIGSGLKTMSIVSYNHLGNNDGENLSAPLQFRSKEVSKSNVVDDMVQSNPVLYTPGEEPDHCVVIKYVPYVGDSKRALDEYTSELMLGGTNTLVLHNTCEDSLLAAPIMLDLALLTELCQRVSFCTDMDPEPQTFHPVLSLLSFLFKAPLVPPGSPVVNALFRQRSCIENILRACVGLPPQNHMLLEHKMERPGPSLKRVGPVAATYPMLNKKGPVPAATNGCTGDANGHLQ
MGSDKIHHHHHHMEDKLISRYDILVNRYKELVSEKLSRKDFIEYNEILFSAHSCAIEGNSFSVDETRTLKEKGLGMIPKGKTLLEAFEILDHFQAYEYLLKNLDRPLTEELLKETHRLLTEHTLSYKTQYDEIPSNPGEYTTVDMCAGDTIFGDHEQLIKQVPRLLQSTQQVLDSGKIHPMIIAARFHGFYEYLHPFRDGNGRLGRLMSNFILLKKEQPLLIIPGSQREEYITALKYIKKERTDEFLIDFFFRTSIKRMEQEIEEKKNLTENFIRGMEFVRNVKSSNDDISEI
MGSDKIHHHHHHMEEQREILEQLKKTLQMLTVEPSKNNQIANEEKEKKENENSWCILEHNYEDIAQEFIDFIYKNPTTYHVVSFFAELLDKHNFKYLSEKSNWQDSIGEDGGKFYTIRNGTNLSAFILGKNWRAEKGVGVIGSHVDALTVKLKPVSFKDTAEGYGRIAVAPYGGTLNELWLDRDLGIGGRLLYKKKGTNEIKSALVDSTPLPVCRIPSLAPHFGKPAEGPFDKEDQTIPVIGFPTPDEEGNEPPTDDEKKSPLFGKHCIHLLRYVAKLAGVEVSELIQMDLDLFDVQKGTIGGIGKHFLFAPRLDDRLCSFAAMIALICYAKDVNTEESDLFSTVTLYDNEEIGSLTRQGAKGGLLESVVERSSSAFTKKPVDLHTVWANSIILSADVNHLYNPNFPEVYLKNHFPVPNVGITLSLDPNGHMATDVVGTALVEELARRNGDKVQYFQIKNNSRSGGTIGPSLASQTGARTIDLGIAQLSMHSIRAATGSKDVGLGVKFFNGFFKHWRSVYDEFGEL
MGSDKIHHHHHHMEFSLERDEARLVEIASIQETYGTFLIEHLDEKTAIISGSWDPLRRCAFVNYVGLIVGEAEDLSAFQEGLPAGKFYIRYRDIDGDKPMSEAAIGDMLKARGRVSFRDPDYVVRVVHHGIFYVTKVVYERDKKQFIERKAPRRPFFSPVSMDPKYARFLVNTAHVRENQLLIDPFCGTGGILIEAALMGIRVIGNDVALSMAAGARTNLKHFHVEDFHIYNMDVSDLPVRDVDGIATDMPYGRNSYASEDLEVLYERSFRKFHEMLKPHGYASFVVSDPDLAELARPFFNIVHDVPVYQHRSLTRHFITAMRKD
MGSDKIHHHHHHMEGGAMMLLEVKNVTKKFGDKVVLKNISFTLEEGESLGILGKSGAGKSVLLHMLRGMDGYEPTEGQIIYHVSYCEKCGYVDVPSKAGTPCKKCGNELKKIEVDFWNDKKYTYNLKRKIAIMLQRTFALYGEKTVLENILEALHQAGYEGKEAIDMALKLIKMVKLEHRITHIARDLSGGEKQRVVLARQIAKEPFIFLADEPTGTLDPQTAKLVHSALKELVIKNKISLILTSHWPEVIAELTEKAIWLDKGEIIMEGTSEEVVNKFMETVKEFKKPETEVEIKEDIIKLENVSKHYCSVERGVIKAVDNVTLNIREREIFGLVGTSGAGKTTLAKIIAGVLPPSKGKYWFRVGDEWVDMTKPGPMGRGRAKRYIGILFQEYALYPHRTILENLTEAIGLELPDEFARMKAVYTLVSVGFSEEEAEEILDKYPHELSVGERHRCALAQVLIKEPRVVILDEPTGTMDPITRNTVAESIHKSRIELEQTYIIVSHDMDFVLNVCDRAGLMRNGKLIKVGKPEEIVALLTEEEKQEMFGQK
MGSDKIHHHHHHMEGIKMRSVVVKEPGQLNIESRPVPVPGAHEVRVKIAFAGICGSDVHIYHGHNPFAKYPRVIGHEFYGIIDAVGEQVSPARIGERVAVDPVVSCGHCYPCSVGRPNVCTQLQVIGVHRDGGFSDYACVPAKNAWRIPEAISDRQATMVEPFTIAANITAQLQPTAQDIALVYGAGPMGLTIIQALKGVYGVKQVIVVDRIAERLQMARENGADLTLDNTDQPLAEQLAQRQLAPTLVIDAACHPAILQEAILLASPAARIGILGFSGEASTLTQQSITSKEISIFSSRLNSGRFPLVIDWMEKGLIRPEALITHCMPLEQVKEAMEIFANDRKTCCKVLLQLG
MGSDKIHHHHHHMEGKVKKAFPGGNTSQGSYSFFDYIIPENVKRVFCLKGGPGVGKSSLMKKIYKEFLHRGYDIDLYHCPSDPSSLDGLVIKKLGVVLMDATAPHTMDPKLPGALDEIINLGDYWNTEELEKNKQEISVYDKDISNSFKRAFKFLKSAEPIFRDIEEKYSDCMDYGKVNLVTEEFIKRLFDGVKSTGNLKREKHLFGSAITPVGCLDYTENILKDVKKVYYLDGEIGTGKTTLLNKVYKKAIEKGLNVEVYHYPLIPEKIETVLLTDLDIGITISTTFKEEDTIDLNQFLNREKLLKYEEDIKFDEKVLDDLICWAVLNLKRAKSKHDIIESYYSPNMRFDEVGKLRDKLIKRILKYEENL
MGSDKIHHHHHHMEHAQMSEKTTNELEKLREHIDSVDQQLLHLLRKRLDLVAQVGGVKHAAGVPIYAPQREASMLAKRREEAAKMNVSPQLIEDILRRLMRESYLNEKDVGFKQVKTDLGHVVIVGGQGKLGGLFAQMLSLSGYQVKSLDKDDWQQADAIFDGAGMVIVTVPISITCELIRDKLTSLPSSCILADLTSIKEKPLEAMLASHQGPVVGLHPMFGPDVGSLAKQVVVVCHGRGREQYEWLLEQIGIWGARLVEADAQQHDKAMQLVQAMRHFSSFVYGLNLYREAADIDNLLQFSSPIYRLELAMVGRLFAQSPELYADIIFAQQESLTAIGDYLDNYAQALELLKRGDRQGFIREFEEVAAWFGDFAPQFQRESRAMLQSVNDMKTG
MGSDKIHHHHHHMEHFLYRLNFSTALHIGKDAGGPSLDDGQMIIHADTLFAALCCEAVRGGRITQLVKYFADGILSISDALPYAGDEIFLPRPVLFTENRKRAGDSALAKALKNKDYIPLSFFGDYLKSMQQLDFNLESLKSESDFGYLTTLTRVAIKGNSPPLPYHVAAWRFADGCGLYIIVRSEQEEARTMFASLLAELGLSGIGGKQSSGWGKFEVKPGPVPDELLRLLEDKQAEYQMLMGTALPVDNELDTVLLNGWYKLLRRGGFIRSESYAARQMKKKTIYMLASGSCLRSRFKGAMLDLSDNGAHPVWRCGNTLFVGVTI
MGSDKIHHHHHHMEIEIATIGGYEEVGRQMTAVRAGDDIVIFDMGLNLSKVLVHDNVETEKMHSLDLIDMGAIPDDRVMSDLEGDVKAIVPTHGHLDHIGAISKLAHRYDAPIVGSPFTIELVKGEIESEQKFGVENDLVKMEAGGTMEIGDRCELEFVHVTHSIIDAINPVLHTPEGAVVYGLDKRMDHDPVLEDPIDMERFREIGREGEGVLCYIEDCTNAGKKGRTPSESTARRHLKDVLTSVADYDGGIVATTFSSHISRVSSLVEFAKEIGREPILLGRSMERYSGTAERMGRVNFPDDLGMFGHRKSVDRAFKRVMNEGKENFLPIVTGHQGEPQAMLTRMGRGETPYDIEDGDKIIFSASVIPEPTNKGQRYQSEQLLRMQGARIYDDIHVSGHLREEGHYQMLDALQPQHLIPAHQDMKGMAPYAKLAKSQGYKIGRDLHMTENGNTIQLVE
MGSDKIHHHHHHMEKLYEIYTGGAEDSFEVGKLLFEENSWQLYLTLDELGRDDSLLLIRKPAVTRLLDQSDYLAEIQRRRKMLTQKGLADPFKLEDKVTLIKSVGSFMDLLPGQVVYFGLEGEDYQQWGYIDEISAGQVNFAAYPSGKYRPFAGEVAVSQLRRLAAFSGEWLLDNPKLRDTEDTTVDGLREVHLKEDPASFAVGRLLCADDDFSLYLTVDEIGRDDSLLLVKKLAVDRVIDQSEYLQDTSRCRRQLKEKGLEDPFEVQGKAANIKQMQDFWRLAAGQVVSFVMKDEEEAEYGILKSKEGDALSFGQYPSGKYETFAGQISLVEVDRLEAFGGELTLENNNC
MGSDKIHHHHHHMELPCSLLCFVETLAVLRRSKSLSNEIIATGSRLVAGPSGAQDRAMTATRYDKNAKNVLGQELVPCSLDPVTGFYRNGCCETGPHDLGLHTVCAVMTRDFLAFSKAQGNDLSTPRPDLAFPGLKPGDRWCLCAGRWKEALDAGMAPQVVLEATHEEMLAVVPLGVLKDHAAA
MGSDKIHHHHHHMELQLQNLALSFKNKPNVIHDISLTMNGGSIVGIVAPNGTGKTTLLRLILNDLKPQAGKVLVDGKSYGSQKQSLALHRQMCLFPVQDDLYPDLSGKAHLEYYAKLWHNRSKSVKQIINVLDMRDYINQPVRTYSMGMKQRLCFGMVMAANTPIMLLDEFMNGLDTINVARMSRILRGLRAEGKLIITVSHLLNNLQGYADLIYFMRDGKIIKTIDQHEQQPLYVQVAEENASRLPRMPWEHYPNGMLVLPIQKLPGEHFNQLLLGLAAHHIPFKLGPLDLDTYFNEFYETDQ
MGSDKIHHHHHHMELVYKITYHRIQAHYLPKLVQAVQFVSEENLWKQGESVNSIGGIVLHICEHMQRNTSRYKNPNIVFEKGIEEYFPTKRQHTEVLLQYVEKVFDEWGKAYIQAWEEKRHIELHSLLHLVEHTSYHLGQIVDRTKLIKGQQFNFCQNGINEKNLRTRVETSKF
MGSDKIHHHHHHMENERKRILELVKQGIISTEEALTLLENISKKEGKTAAKENIRRSAAPREEEQVEEETKEEPSYDYSKGWNNQGNPYTPPKSRKRRPEPTPENHERDEEEGGENSSKDREDSMRNMVNDLSQAGEKIGSFLNSAFKQVKDMPFPFLTSTKIERDFIYHDTTLSILEFEIANGNIEFKPSDSNDIKVHAMIKLFKEYPEDEALKIFFDKTTLRVDEETLRFESKSKQIVTNLTVYLPRREYDYVSVKMLNGNFHMDELSGRDLFVKTTNGNISIGTLNATLAEIESINGNVRIQNGEIRDVALKTFNGNVAVKGNYYSTNLQTKNGNVNYQLTGNEATFLKAKTGAGNIDVVVPAAIGVDGRFHTNLGKLLLDLKDAEILESKTESVSKSIIFTKLPDAADSSLKIEAEATTGSVKIRDVK
MGSDKIHHHHHHMENKLLVFLEAIQQHNSMTKAAQSLFISQPYISRTIKSAETHFGTPLIDRGHHPLELTYAGERLLTYLQSDARLHQRMNTELKEISQNKYQSMTIGITPPMANAWFSQTLPAFYQRFPNIRTKILEITTSKAETLLASHQLDFFIGKTIHQTNVKTIPLQTISLSLVIPKTAGIYQSNQFWRPFTPTILTGMTGEPVIRAVGEARFQELVDHYFADKGIQTIPLIEVDNSRFALSLTLQGLGSIVLATAMLARLATEPAKYPINAFKLPTSELSLDFSIAYLPSHVLAKPIAYLVEQACQTFNPAIDF
